Experimental data reported in patent US20250152663A1, “COMPOSITION FOR PREVENTION OR TREATMENT OF DRY EYE DISEASE COMPRISING HAPLN1” (HAPLNSCIENCE INC., priority 2021, published 2025).

How the values were obtained:
[1] = test system: inflammatory factors (Interleukins, CCL/CXCL family, Chitinase 3-like 1) in human corneal epithelial cells; experiment: Human XL cytokine array of culture broth under high osmotic pressure; assay type: cell-based; details: HCEC, 450 mOsM, 24 hours
Protocol: As one of the effects the HAPLN1 protein-containing composition of the present disclosure on the relief of dry eye disease, an effect on the relief of inflammation was verified by using Human XL cytokine array (R&D Systems. ARY022B) based on expression levels of inflammatory factors (Interleukins, CCL/CXCL family, and […]).
First, the human corneal epithelial cells after 4th passage were seeded onto 6 wells and incubated for 24 hours under low osmotic pressure conditions (314 mOsM). Subsequently, the cells were incubated under high osmotic pressure conditions (450 mOsM) for 48 hours and treated with different concentrations (i.e., 10 μg/ml HAPLN 1 μl to 1 ml media->working concentration of 10 ng/ml) of the composition according to the present disclosure. Then, the cells were further incubated for 24 hours, and the culture broth was recovered therefrom, followed by an assay on the expression level of each marker by using Human XL cytokine array (R&D Systems. ARY022B). According to each of the graphs of FIG. 3B illustrating relative expression levels of the markers of the inflammatory factors in the different concentrations of the HAPLN1 protein, it was confirmed that secretion of inflammatory factors such as IL-6, IL-17A, CCL20, CXCL10, CCL5, CD54, and CD176 increased under the high osmotic pressure conditions (450 mOsM).

[2] = test system: IL-1β in lacrimal glands; experiment: IL-1β immunohistochemistry in lacrimal gland, mouse dry eye model; assay type: in vivo, C57BL/6; details: 5 μg/ml or more of HAPLN1, after 16 days of drug treatment
Protocol: In this example, expression of IL-1B in lacrimal glands was identified by immunohistochemistry in order to identify an in vivo anti-inflammatory effect of the HAPLN1 protein-containing composition of the present disclosure. To this end, on the 2nd day after 16 days of drug treatment, eyes were enucleated and paraffin blocked. IHC was performed by using a prepared slide, and expression (brown) of IL-1β was identified by using an Anti-IL1β antibody (FIG. 11A). FIG. 11B is a graph illustrating quantified expression levels of IL-1β obtained in FIG. 11A.

[3] = test system: mouse dry eye model; experiment: Corneal fluorescein score, low-humidity+scopolamine-induced dry eye disease model; assay type: in vivo, C57BL/6
Protocol: Corneal fluorescein score assay and tear volume assay were respectively performed on eyeballs of mice treated with the compositions of Preparation Examples 1, 2, and 3 prepared in Example 7 above by using a low-humidity+scopolamine-induced dry eye disease (DED) model.
When obtaining experimental animals, inspection and quarantines were carried out by referring the microbiological monitoring report of a test system provided by the supplier and observing the appearance of the experimental animals. Animals with no apparent abnormalities were brought into a vivarium and acclimated for 2 weeks in an animal room where tests were conducted. During the quarantine and acclimation period of 2 weeks, health condition and suitability for the experiment were evaluated, and then healthy animals were selected. By using only the animals with no abnormalities during the quarantine and acclimation period, dry eye disease was induced and the degree of corneal damage was evaluated by corneal fluorescein staining, and the test groups were classified by a Z-array method according to clinical scores. A dry eye disease test group consisted of eyeballs with a corneal fluorescein stain score of 7 to 15, and a sham group (normal) consisted of eyeballs not having a corneal fluorescein stains core of 5 or more. […]

[4] = test system: NFκB in human corneal epithelial cells; experiment: Western blot of NFκB activity under high osmotic pressure; assay type: cell-based; details: HCEC, 450 mOsM
Protocol: (§1) In addition, the activity of NFκB that is an important transcription factor in expression of the inflammatory factors was identified by Western blot analysis (FIG. 4B). Preparation of the experiment was performed under the same conditions of those of Cytokine array performed as described above and the ELISA was performed according to the manufacturer's instructions.

[5] = test system: CCL-20 secreted by human corneal epithelial cells; experiment: CCL-20 ELISA under high osmotic pressure; assay type: cell-based; details: HCEC, 450 mOsM, 5, 10, 20, 50, and 100 ng/ml
Protocol: as §1

B1: hyaluronan and proteoglycan link protein 1 (HAPLN1) (protein, listed as Homo sapiens)
chain: MKSLLLLVLISICWADHLSDNYTLDHDRAIHIQAENGPHLLVEAEQAKVFSHRGGNVTLPCKFYRDPTAFGSGIHKIRIKWTKLTSDYLKEVDVFVSMGYHKKTYGGYQGRVFLKGGSDSDASLVITDLTLEDYGRYKCEVIEGLEDDTVVVALDLQGVVFPYFPRLGRYNLNFHEAQQACLDQDAVIASFDQLYDAWRGGLDWCNAGWLSDGSVQYPITKPREPCGGQNTVPGVRNYGFWDKDKSRYDVFCFTSNFNGRFYYLIHPTKLTYDEAVQACLNDGAQIAKVGQIFAAWKILGYDRCDAGWLADGSVRYPISRPRRRCSPTEAAVRFVGFPDKKHKLYGVYCFRAYN
expression levels of the inflammatory factors, compared with untreated groups ([1]; 10 to 100 ng/ml): lower than that of untreated groups
expression levels of IL-17A, Fas ligand/CD178, FGF-7, FGF-19, Angiogenin, RBP-4, and Chitinase 3-like 1 [1]: reduced to the levels of normal cells
expression levels of various inflammatory factors, relative to normal group (1.0) [1]: decreased to the level of the normal group or less
expression of IL-1β in lacrimal gland [2]: decreased to a level similar to that of Sham control
CFS level compared with Cyclosporine A ([3]; after 11 days): reduced the CFS level more than Cyclosporine A
CFS level ([3]; eye drop 0.5, 5, 50 μg/ml, 5 μL b.i.d., regardless of the concentration): consistently decreased
phosphorylation of NFκB [4]: reduced
expression levels of the inflammatory factor CCL20 (ELISA) [5]: relatively lower than those of the HAPLN1 protein-untreated groups
